Measurements published in PMC6261651, “A functional proteomics platform to reveal the sequence determinants of lysine methyltransferase substrate selectivity” (Science Advances, 2018).
Changes are numbered by the printed parent chain. Names may count otherwise. “Also recorded” adds a separate entry of the source.

B1: PER2: recombinant PER2 (amino acids 691 to 900), N-terminal MBP-His fusion (protein, UniProt O15055 691-900, looked up, fragment)
chain: VEDAASGPESLDCLAGPALACGLSQEKEPFKKLGLTKEVLAAHTQKEEQSFLQKFKEIRKLSIFQSHCHYYLQERSKGQPSERTAPGLRNTSGIDSPWKKTGKNRKLKSKRVKPRDSSESTGSGGPVSARPPLVGLNATAWSPSDTSQSSCPAVPFPAPVPAAYSLPVFPAPGTVAAPPAPPHASFTVPAVPVDLQHQFAVQPPPFPAPL
modifications: N-terminal MBP-His fusion
notes: recombinant PER2 (amino acids 691 to 900), N-terminal MBP-His fusion
B2: ZPK: recombinant protein, predicted SMYD2 substrate (protein, UniProt Q12852 1-859, looked up)
Mitogen-activated protein …: MACLHETRTPSPSFGGFVSTLSEASMRKLDPDTSDCTPEKDLTPTHVLQLHEQDAGGPGGAAGSPESRASRVRADEVRLQCQSGSGFLEGLFGCLRPVWTMIGKAYSTEHKQQQEDLWEVPFEEILDLQWVGSGAQGAVFLGRFHGEEVAVKKVRDLKETDIKHLRKLKHPNIITFKGVCTQAPCYCILMEFCAQGQLYEVLRAGRPVTPSLLVDWSMGIAGGMNYLHLHKIIHRDLKSPNMLITYDDVVKISDFGTSKELSDKSTKMSFAGTVAWMAPEVIRNEPVSEKVDIWSFGVVLWELLTGEIPYKDVDSSAIIWGVGSNSLHLPVPSSCPDGFKILLRQCWNSKPRNRPSFRQILLHLDIASADVLSTPQETYFKSQAEWREEVKLHFEKIKSEGTCLHRLEEELVMRRREELRHALDIREHYERKLERANNLYMELNALMLQLELKERELLRREQALERRCPGLLKPHPSRGLLHGNTMEKLIKKRNVPQKLSPHSKRPDILKTESLLPKLDAALSGVGLPGCPKGPPSPGRSRRGKTRHRKASAKGSCGDLPGLRTAVPPHEPGGPGSPGGLGGGPSAWEACPPALRGLHHDLLLRKMSSSSPDLLSAALGSRGRGATGGAGDPGSPPPARGDTPPSEGSAPGSTSPDSPGGAKGEPPPPVGPGEGVGLLGTGREGTSGRGGSRAGSQHLTPAALLYRAAVTRSQKRGISSEEEEGEVDSEVELTSSQRWPQSLNMRQSLSTFSSENPSDGEEGTASEPSPSGTPEVGSTNTDERPDERSDDMCSQGSEIPLDPPPSEVIPGPEPSSLPIPHQELLRERGPPNSEDSDCDSTELDNSNSVDALRPPASLPP
B3: ATP6V1G3: recombinant ATP6V1G3 (full length), N-terminal GST fusion (protein, UniProt Q96LB4 1-118, looked up)
chain: MTSQSQGIHQLLQAEKRAKDKLEEAKKRKGKRLKQAKEEAMVEIDQYRMQRDKEFRLKQSKIMGSQNNLSDEIEEQTLGKIQELNGHYNKYMESVMNQLLSMVCDMKPEIHVNYRATN
modifications: full-length N-terminal GST fusion
B4: CDC5L: recombinant CDC5L (amino acids 150 to 280), N-terminal GST fusion (protein, UniProt Q99459 150-280, looked up, fragment)
chain: EMLSEARARLANTQGKKAKRKAREKQLEEARRLAALQKRRELRAAGIEIQKKRKRKRGVDYNAEIPFEKKPALGFYDTSEENYQALDADFRKLRQQDLDGELRSEKEGRDRKKDKQHLKRKKESDLPSAIL
modifications: N-terminal GST fusion
notes: recombinant CDC5L (amino acids 150 to 280), N-terminal GST fusion
B5: GDAP1: recombinant GDAP1 (full length), Abcam (protein, UniProt Q8TB36 1-358, looked up)
chain: MAERQEEQRGSPPLRAEGKADAEVKLILYHWTHSFSSQKVRLVIAEKALKCEEHDVSLPLSEHNEPWFMRLNSTGEVPVLIHGENIICEATQIIDYLEQTFLDERTPRLMPDKESMYYPRVQHYRELLDSLPMDAYTHGCILHPELTVDSMIPAYATTRIRSQIGNTESELKKLAEENPDLQEAYIAKQKRLKSKLLDHDNVKYLKKILDELEKVLDQVETELQRRNEETPEEGQQPWLCGESFTLADVSLAVTLHRLKFLGFARRNWGNGKRPNLETYYERVLKRKTFNKVLGHVNNILISAVLPTAFRVAKKRAPKVLGTTLVVGLLAGVGYFAFMLFRKRLGSMILAFRPRPNYF
modifications: full-length
notes: recombinant GDAP1 (full length), Abcam
B6: MAPKAPK3: full-length recombinant MAPKAPK3, known SMYD2 substrate (protein, UniProt Q16644 1-382, looked up)
chain: MDGETAEEQGGPVPPPVAPGGPGLGGAPGGRREPKKYAVTDDYQLSKQVLGLGVNGKVLECFHRRTGQKCALKLLYDSPKARQEVDHHWQASGGPHIVCILDVYENMHHGKRCLLIIMECMEGGELFSRIQERGDQAFTEREAAEIMRDIGTAIQFLHSHNIAHRDVKPENLLYTSKEKDAVLKLTDFGFAKETTQNALQTPCYTPYYVAPEVLGPEKYDKSCDMWSLGVIMYILLCGFPPFYSNTGQAISPGMKRRIRLGQYGFPNPEWSEVSEDAKQLIRLLLKTDPTERLTITQFMNHPWINQSMVVPQTPLHTARVLQEDKDHWDEVKEEMTSALATMRVDYDQVKIKDLKTSNNRLLNKRRKKQAGSSSASQGCNNQ
modifications: full-length
notes: full-length recombinant MAPKAPK3, known SMYD2 substrate
B7: MAPKAPK3 (D353R and T356S): MAPKAPK3 with mutations predicted to enhance methylation (protein, UniProt Q16644 1-382, looked up, variant D353R T356S)
MAP kinase-activated protein …: B6 chain with D353R, T356S

biological target: T1, SMYD2 (Homo sapiens, UniProt Q9NRG4); test: SPA kinetic analysis of SMYD2 methylation of peptide substrates; assay type: biochemical; conditions: 200 nM SMYD2, 50 μM SAM, varied substrate concentration, mean of three independent measurements (Fig. 4D)
T1 construct: SMYD2 (full length) was expressed as a N-terminal glutathione S-transferase (GST) fusion; GST (N); made in house; host or cells: Escherichia coli BL21(DE3)
Description: Reactions (10 μl) containing 1 μg of KMT, 1 μg of a K-OPL set, and 1 μCi of ^3H-SAM (PerkinElmer) in KMT reaction buffer [50 mM tris (pH 8.8), 5 mM MgCl2, and 4 mM dithiothreitol] were incubated for 1 hour at room temperature. Reactions were stopped by adding trifluoracetic acid to a final concentration of 0.5%, neutralized by diluting with 135 μl of 50 mM NaHCO3, and transferred to streptavidin-coated FlashPlates (PerkinElmer). Plates were incubated for 15 min, sealed, and counted in a MicroBeta2 liquid scintillation counter (PerkinElmer) for 1 min per sample. Initial rate measure and kinetic analysis were performed using the same procedure with 200 nM SMYD2, 50 μM SAM (5:1 cold/hot ratio), and 80 μM substrate (initial rate measurements) or as indicated (kinetic analysis). IC50 measurements were performed using the same conditions with 5 μM PER2 peptide as a substrate.

T1 sequence (Q9NRG4 whole entry, the tested form may be a part): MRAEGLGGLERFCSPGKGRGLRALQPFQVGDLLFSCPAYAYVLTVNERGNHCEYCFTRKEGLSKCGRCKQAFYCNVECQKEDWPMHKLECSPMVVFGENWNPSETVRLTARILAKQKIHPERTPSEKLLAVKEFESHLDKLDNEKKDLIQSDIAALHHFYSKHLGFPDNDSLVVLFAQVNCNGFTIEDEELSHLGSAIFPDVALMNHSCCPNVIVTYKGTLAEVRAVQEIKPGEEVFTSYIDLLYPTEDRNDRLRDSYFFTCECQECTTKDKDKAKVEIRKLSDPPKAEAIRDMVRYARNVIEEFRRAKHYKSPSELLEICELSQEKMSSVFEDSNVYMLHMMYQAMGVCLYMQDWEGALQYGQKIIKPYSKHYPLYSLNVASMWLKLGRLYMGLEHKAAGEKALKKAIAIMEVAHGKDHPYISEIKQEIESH

Molecule	kinetic model of SMYD2 methylation
B1	consistent with substrate inhibition

biological target: T1, SMYD2; test: In vitro SMYD2 methyltransferase assay with protein substrates (SDS-PAGE, 3H fluorography); assay type: biochemical; conditions: 1 μg of KMT, 1 μg of substrate, 1 μCi 3H-SAM, 1 hour, room temperature; 3H fluorography (Fig. 5A, 5B, fig. S5A)
Description: Reactions (10 μl) containing 1 μg of KMT, 1 μg of the indicated substrates, and 1 μCi of ^3H-SAM (PerkinElmer) in KMT reaction buffer were incubated for 1 hour at room temperature. Reactions were quenched by the addition of SDS loading buffer and resolved by SDS–polyacrylamide gel electrophoresis. Following the detection of total protein by Coomassie staining, gels were treated with EN^3HANCE (PerkinElmer) and dried, and methylated proteins were detected by autoradiography.
Fig. S5. In vitro SMYD2 assays with protein substrates. (A) Coomassie stained SDS-PAGE of recombinant control (HIS-GST), known substrates (p53, MAPKAPK3), and predicted substrates (PRDM11, GDAP1, MAP3K12) in the absence and presence of SMYD2. Reactions were carried out with 1 μg of SMYD2, 1 μg of substrate, and 1 μCi of 3H-SAM. 3H fluorograph shown below after 24 hour exposure at -80 °C (B) Cartoon repre- sentation of ZPK (PDB:
5CEN) showing plus and minus three amino acids from the target lysine (PO) as stick models.
(1 picture or pasted object on this page, not shown here)

Molecule	methylation of recombinant protein substrate by SMYD2
B2	methylated by SMYD2; also recorded: poor SMYD2 substrates
B3	methylated by SMYD2; also recorded: at least as efficiently as the known substrate, p53
B4	methylated by SMYD2; also recorded: at least as efficiently as the known substrate, p53
B1	methylated by SMYD2; also recorded: at least as efficiently as the known substrate, p53
B5	methylated by SMYD2; also recorded: poor SMYD2 substrates
B6	weaker than most of the newly identified SMYD2 substrates
B7	improved methylation of this protein
